Assay results taken from paper PMC10397247.
Read-outs that look alike come from different tables or passages of the source. Each block holds one binder with its values, some of them ahead of it.

Experiments:
Assay in all cases: two-hybrid library CCNG1;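 also: natural log of median RNA to DNA barcode read ratio; higher means stronger binding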
P6A-bH = target: T1, P6A-bH
T1 chain: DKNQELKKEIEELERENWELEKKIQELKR

P4A-bH = target: T2, P4A-bH
T2 chain: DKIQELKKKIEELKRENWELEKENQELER

P7A-bH = target: T3, P7A-bH
T3 chain: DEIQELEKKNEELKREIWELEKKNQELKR

P8A-bH = target: T4, P8A-bH
T4 chain: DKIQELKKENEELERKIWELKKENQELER

P3A-bH = target: T5, P3A-bH
T5 chain: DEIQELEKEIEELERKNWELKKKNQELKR

P9A-bH = target: T6, P9A-bH
T6 chain: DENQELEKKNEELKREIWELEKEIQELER

P5A-bH = target: T7, P5A-bH
T7 chain: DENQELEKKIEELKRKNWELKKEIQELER

4H346-bH = target: T8, 4H346-bH
T8 chain: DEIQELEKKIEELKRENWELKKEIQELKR

4H953-bH = target: T9, 4H953-bH
T9 chain: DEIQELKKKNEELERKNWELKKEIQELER

4H797-bH = target: T10, 4H797-bH
T10 chain: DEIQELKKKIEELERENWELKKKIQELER

4H855-bH = target: T11, 4H855-bH
T11 chain: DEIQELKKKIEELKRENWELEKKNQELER

4H918-bH = target: T12, 4H918-bH
T12 chain: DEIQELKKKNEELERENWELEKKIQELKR

O4 = target: T13, O4
T13 chain: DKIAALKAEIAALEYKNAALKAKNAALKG

4H2702-bH = target: T14, 4H2702-bH
T14 chain: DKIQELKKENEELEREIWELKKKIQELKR

4H2673-bH = target: T15, 4H2673-bH
T15 chain: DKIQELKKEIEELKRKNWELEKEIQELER

4H683-bH = target: T16, 4H683-bH
T16 chain: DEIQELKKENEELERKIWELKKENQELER

4H457-bH = target: T17, 4H457-bH
T17 chain: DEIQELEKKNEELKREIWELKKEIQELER

4H3427-bH = target: T18, 4H3427-bH
T18 chain: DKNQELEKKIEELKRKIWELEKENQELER

4H575-bH = target: T19, 4H575-bH
T19 chain: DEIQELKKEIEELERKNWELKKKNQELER

4H3926-bH = target: T20, 4H3926-bH
T20 chain: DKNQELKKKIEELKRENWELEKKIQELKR

4H968-bH = target: T21, 4H968-bH
T21 chain: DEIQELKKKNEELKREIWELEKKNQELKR

4H780-bH = target: T22, 4H780-bH
T22 chain: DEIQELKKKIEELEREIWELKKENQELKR

4H2586-bH = target: T23, 4H2586-bH
T23 chain: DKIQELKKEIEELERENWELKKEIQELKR

4H3112-bH = target: T24, 4H3112-bH
T24 chain: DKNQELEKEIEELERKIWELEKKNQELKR

4H754-bH = target: T25, 4H754-bH
T25 chain: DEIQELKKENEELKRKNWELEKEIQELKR

4H626-bH = target: T26, 4H626-bH
T26 chain: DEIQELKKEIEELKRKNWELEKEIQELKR

4H4073-bH = target: T27, 4H4073-bH
T27 chain: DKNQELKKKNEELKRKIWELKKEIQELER

4H3010-bH = target: T28, 4H3010-bH
T28 chain: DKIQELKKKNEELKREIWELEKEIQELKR

4H2627-bH = target: T29, 4H2627-bH
T29 chain: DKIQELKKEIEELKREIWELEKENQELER

4H1831-bH = target: T30, 4H1831-bH
T30 chain: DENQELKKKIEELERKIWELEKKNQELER

Binder: DKIQELKKKNEELKRKNWELKKKIQELKR [P2A-bH]
interaction score (P6A-bH): -0.802
interaction score (P4A-bH): 0.539
interaction score (P7A-bH): -0.557
interaction score (P8A-bH): 0.132
interaction score (P3A-bH): -1.95
interaction score (P9A-bH): -1.02
interaction score (P5A-bH; mean of both orientations): -1.23

Binder: DEIQELEKENEELERENWELEKEIQELER [P1A-bH]
interaction score (P6A-bH): -0.616
interaction score (P4A-bH): -0.5
interaction score (P7A-bH): -0.716
interaction score (P8A-bH): -0.232
interaction score (P3A-bH): -1.59
interaction score (P9A-bH): -1.36
interaction score (P5A-bH): -0.798

Next, values leading:

interaction score (P6A-bH): 0.553
interaction score (P4A-bH): 1.77
interaction score (P7A-bH): 0.468
interaction score (P8A-bH): -1.03
interaction score (P3A-bH): -0.68
interaction score (P9A-bH): 0.465
interaction score (P5A-bH): 0.779
Binder: DEIQELEKEIEELERKNWELKKKNQELKR [P3A-bH]

interaction score (4H346-bH): 0.11
interaction score (4H953-bH): -0.749
interaction score (4H797-bH): -1.12
interaction score (4H855-bH): -0.184
interaction score (4H918-bH): -0.221
interaction score (O4): -1.48
interaction score (4H2702-bH): 0.297
interaction score (4H2673-bH): 0.349
interaction score (4H683-bH): -0.934
interaction score (4H457-bH): 0.724
interaction score (4H3427-bH): 0.584
interaction score (4H575-bH): -1.81
interaction score (4H3926-bH): -0.549
interaction score (4H968-bH): -2.37
interaction score (4H780-bH): 0.511
interaction score (4H2586-bH): -1.54
interaction score (4H3112-bH): -0.582
interaction score (4H754-bH): 0.0674
interaction score (4H626-bH): 1.02
interaction score (4H4073-bH): -0.216
interaction score (4H3010-bH): 1.32
interaction score (4H2627-bH): 1.87
interaction score (4H1831-bH): -0.611
Binder: DENQELKKKIEELERKIWELEKKNQELER [4H1831-bH]
